Experimental data taken from article PMC5849677.

Columns and labels:
[1] = target: native hC3d purified from human serum (human); assay: SPR; Biacore; hC3d or C3d(g)-Fc fusions immobilised by amine coupling (94.3-96.2 RU); Fc-fusion analytes 0.195-50 nM in HBS-EP+, physiological salt, 360 s injection; steady state affinity model; apparent KD
[2] = target: hC3d,g (s)-Fc (Cys to Ser variant of hC3dg-Fc) (human) (UniProt P01024); assay: as above

hCR2 (SCR1-4)-Fc (from UniProt P20023 21-273) (Fc fusion)
Kd [1]: 10.6 nM | Kd [2]: 2.6 nM
